In patent US20220204610A1, “PROTEIN BINDERS FOR IRHOM2” (NEW YORK SOCIETY FOR THE RELIEF OF THE RUPTURED AND …, priority 2019, published 2022):

Tests used:
[1] = test system: LPS-induced release of endogenous TNFα from human THP-1 macrophage cells; test: ELISA-based TNFα release assay with purified antibody (Example 11); type: cell-based; settings: antibody at 10 μg/ml final; LPS 50 ng/ml, 2 hours
Protocol: In the following study, ELISA-based TNFα release assays were performed to verify the inhibitory effects of the purified antibody 4H8-E3 of the invention on LPS-induced release of endogenous TNFα from human THP-1 macrophage cells.
In brief, on day 1, Nunc black MaxiSorp® 96-well plates (Thermo Fisher Scientific, USA) were coated overnight with 100 μl per well of mouse anti-human TNFα capture antibody (provided as part of the DuoSet ELISA kit) at 4 μg/ml TBS at 4° C. On day 2, the capture antibody solution was removed and MaxiSorp® plates were blocked with 300 μl per well of TBS, 1% BSA at room temperature for 3 hours. […] Using an infinite M1000 PRO (Tecan Group, Switzerland) microplate reader, the fluorescence of each well was collected at an excitation wavelength of 435 nm and an emission wavelength of 555 nm.

[2] = test system: human iRhom1; test: Peptide binding ELISA, binding specificity (Example 10), iRhom1 peptides; settings: antibody 3 μg/ml PBS; peptides coated at 10 μg/ml; normalized to IgM isotype control
Protocol: Another series of peptide binding ELISA experiments was conducted to address the specificity of the purified antibody 4H8-E3 of the invention, i.e. to question whether this antibody specifically recognizes peptides, in particular peptide 3, resembling the extracellular juxtamembrane region adjacent to the TMD1 of human iRhom2, or whether the antibody 4H8-E3 of the invention also binds to peptides reflecting the homologous region of the closely related family member human iRhom1.
In brief, on day 1, Nunc black MaxiSorp® 96-well plates (Thermo Fisher Scientific, USA) were coated overnight with 100 μl per well of single biotinylated peptides 1 to 4, Mix A consisting of peptides 1 to 4, single biotinylated peptides 1b to 4b, and Mix D consisting of peptides 1b to 4b at 10 μg/m1 PBS each (thus, the final concentration of each peptide in both mixes was 2.5 μg/m1) at 4° C. On day 2, peptide solutions were removed and MaxiSorp® plates were blocked with 300 μl per well of Pierce protein-free (TBS) blocking buffer (Thermo Fisher Scientific, USA) at room temperature for 1.5 hours. […] Using an infinite M1000 PRO (Tecan Group, Switzerland) microplate reader, the fluorescence of each well was collected at an excitation wavelength of 435 nm and an emission wavelength of 555 nm.

B1: 4H8-E3: Mouse IgM monoclonal antibody against the human iRhom2 juxtamembrane domain adjacent to TMD1; HC VD SEQ ID NO 33, LC VD SEQ ID NO 40 (antibody, V domains shown)
VH: EVQLQQSGPELVKPGASVKISCKASGYTFTDYYMNWVKQSHGKSLEWIGDINPNNGGTSYNQKFKGKATLTVDKSSNTAYMEFRSLTSEDSAVYYCARRGYYGVDYWGQGTTLTVSS
VL: NIVMTQSPKSMSMSVGERVTLNCKASENVGTYVSWYQQKPEQSPKLLIFGASNRYTGVPDRFIGSGFATDFTLTISSVQAEDLADYHCGQSYSYPYTFGGGTKLEIK
modifications: IgM constant regions; antibody sequence
inhibition of LPS-induced release of TNFα from THP-1 cells [1]: 62.6%
binding to Mix D or individually coated peptides 1b, 2b, 3b and 4b (homologous sequences of human iRhom1) [2]: does not bind at all
